The record followed here is article PMC5018734.

In the experiment the target is T1, human P2X1 receptor, wild type subunit (human) (UniProt P51575).
T1 sequence: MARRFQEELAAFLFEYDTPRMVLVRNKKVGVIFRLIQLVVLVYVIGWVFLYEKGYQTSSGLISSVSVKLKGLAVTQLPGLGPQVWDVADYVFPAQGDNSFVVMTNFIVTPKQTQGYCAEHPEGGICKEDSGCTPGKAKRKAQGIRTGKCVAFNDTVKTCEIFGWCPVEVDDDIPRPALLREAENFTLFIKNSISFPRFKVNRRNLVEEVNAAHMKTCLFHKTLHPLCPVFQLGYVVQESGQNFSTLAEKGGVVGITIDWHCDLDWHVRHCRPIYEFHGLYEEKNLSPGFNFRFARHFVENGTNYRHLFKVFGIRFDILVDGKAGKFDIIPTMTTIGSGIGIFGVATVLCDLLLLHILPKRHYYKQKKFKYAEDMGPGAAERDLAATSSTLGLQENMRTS

B1: human P2X1 receptor K190C-K68A double mutant subunit (receptor)
chain: MARRFQEELAAFLFEYDTPRMVLVRNKKVGVIFRLIQLVVLVYVIGWVFLYEKGYQTSSGLISSVSVALKGLAVTQLPGLGPQVWDVADYVFPAQGDNSFVVMTNFIVTPKQTQGYCAEHPEGGICKEDSGCTPGKAKRKAQGIRTGKCVAFNDTVKTCEIFGWCPVEVDDDIPRPALLREAENFTLFICNSISFPRFKVNRRNLVEEVNAAHMKTCLFHKTLHPLCPVFQLGYVVQESGQNFSTLAEKGGVVGITIDWHCDLDWHVRHCRPIYEFHGLYEEKNLSPGFNFRFARHFVENGTNYRHLFKVFGIRFDILVDGKAGKFDIIPTMTTIGSGIGIFGVATVLCDLLLLHILPKRHYYKQKKFKYAEDMGPGAAERDLAATSSTLGLQENMRTS
modifications: labelled with the cysteine reactive fluorophore MTS-TAMRA (K190C)
The molecule B1 had an ATP (100 uM) evoked decrease in MTS-TAMRA fluorescence (voltage clamp fluorometry) in oocytes co-expressing WT and K68A-K190C subunits; neither homomer shows a fluorescence change of 3%.
